These results are taken from article PMC6158681.

This experiment addresses SpyCatcher-mi3 (Streptococcus pyogenes | Thermotoga maritima).

In the case of SpyTag-MBP, the % conjugation came to 91%.
